In US20250383346A1:

Biological target: Her2 extracellular domain antigen (ACRO Biosystems) (UniProt P04626)
Assay: SPR (Carterra LSA), Fab captured from lysate on Fab Kappa capture reagent, Her2 ECD in solution

Kd: 100 nM
Substance: five standards of trastuzumab Fab
